Data as given in the supplement of paper PMC10567573.

B1: C22orf15 (parent)
chain: ITQSWQVSVRVQPRGRAHLLPNPY

Variants of: B1
Assay: protein stability index of a GFP-peptide fusion (GPS, HEK-293T) (PSI 1-6); higher = more stable
Details: c terminus: a fixed tail appended
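Note: lentivirally expressed fusions sorted by FACS into six bins by GFP to DsRed ratio, PSI derived from sequencing read proportions per bin multiplied by bin number.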

| Variant | protein stability index |
| --- | --- |
| ITQTWQVSVRVQPRGRAHLLPNPY | 1.48 |
| ITQYWQVSVRVQPRGRAHLLPNPY | 2.42 |
| ITQNWQVSVRVQPRGRAHLLPNPY | 1.73 |
| ITQFWQVSVRVQPRGRAHLLPNPY | 3.65 |
| ITQRWQVSVRVQPRGRAHLLPNPY | 2.99 |
| ITQKWQVSVRVQPRGRAHLLPNPY | 1.42 |
| ITQGWQVSVRVQPRGRAHLLPNPY | 2.27 |
| ITQHWQVSVRVQPRGRAHLLPNPY | 2.83 |
| ITQAWQVSVRVQPRGRAHLLPNPY | 3.33 |
| ITQPWQVSVRVQPRGRAHLLPNPY | 1.65 |
| ITQQWQVSVRVQPRGRAHLLPNPY | 1.87 |
| ITQSWQVSVRVFPRGRAHLLPNPY | 3.49 |
| ITQSWQVSVRVKPRGRAHLLPNPY | 1.79 |
| ITQSWQVSVRVWPRGRAHLLPNPY | 2.49 |
| ITQSWQVSVRVTPRGRAHLLPNPY | 1 |
| ITQSWQVSVRVYPRGRAHLLPNPY | 2.25 |
| ITQSWQVSVRVGPRGRAHLLPNPY | 3.64 |
| ITQSWQVSVRVMPRGRAHLLPNPY | 3.2 |
| ITQSWQVSVRVEPRGRAHLLPNPY | 2.61 |
| ITQSWQVSVRVAPRGRAHLLPNPY | 1.16 |
| ITQSWQVSVRVNPRGRAHLLPNPY | 2.98 |
| ITQSWQVSVRVDPRGRAHLLPNPY | 2.27 |
| ITQSWQVSVRVCPRGRAHLLPNPY | 1.77 |
| ITQSWQVSVRVPPRGRAHLLPNPY | 1.72 |

| Variant | protein stability index |
| --- | --- |
| ITQSWQVSVRVSPRGRAHLLPNPY | 2.13 |
| ITQSWQVSVRVHPRGRAHLLPNPY | 2.27 |
| ITQSWQVSVRQQPRGRAHLLPNPY | 1.49 |
| ITQSWQVSVRNQPRGRAHLLPNPY | 2.51 |
| ITQSWQVSVRPQPRGRAHLLPNPY | 1.8 |
| ITQSWQVSVRKQPRGRAHLLPNPY | 3.28 |
| ITQSWQVSVRAQPRGRAHLLPNPY | 2.07 |
| ITQSWQVSVRMQPRGRAHLLPNPY | 3.05 |
| ITQSWQVSVRFQPRGRAHLLPNPY | 1.69 |
| ITQSWQVSVRHQPRGRAHLLPNPY | 2.49 |
| ITQSWQVSVRGQPRGRAHLLPNPY | 2.43 |
| ITQSWQVSVRRQPRGRAHLLPNPY | 1.86 |
| ITQSWQVSVRIQPRGRAHLLPNPY | 4.95 |
| ITQSWQVSVREQPRGRAHLLPNPY | 2.65 |
| ITQSWQVSVRTQPRGRAHLLPNPY | 1.87 |
| ITQSWQVSVRSQPRGRAHLLPNPY | 1.95 |
| ITQSWQVSVRYQPRGRAHLLPNPY | 1.68 |
| ITQSWQVSVRDQPRGRAHLLPNPY | 2.45 |
| ITRSWQVSVRVQPRGRAHLLPNPY | 1.1 |
| ITNSWQVSVRVQPRGRAHLLPNPY | 1.85 |
| ITDSWQVSVRVQPRGRAHLLPNPY | 1.47 |
| ITYSWQVSVRVQPRGRAHLLPNPY | 4.26 |
| ITHSWQVSVRVQPRGRAHLLPNPY | 2.02 |
| ITTSWQVSVRVQPRGRAHLLPNPY | 1.51 |

| Variant | protein stability index |
| --- | --- |
| ITSSWQVSVRVQPRGRAHLLPNPY | 3.25 |
| ITWSWQVSVRVQPRGRAHLLPNPY | 1.68 |
| ITASWQVSVRVQPRGRAHLLPNPY | 3.08 |
| ITESWQVSVRVQPRGRAHLLPNPY | 1.07 |
| ITKSWQVSVRVQPRGRAHLLPNPY | 1.95 |
| ITFSWQVSVRVQPRGRAHLLPNPY | 2.14 |
| ITQSWQQSVRVQPRGRAHLLPNPY | 2.51 |
| ITQSWQASVRVQPRGRAHLLPNPY | 2.77 |
| ITQSWQKSVRVQPRGRAHLLPNPY | 1.81 |
| ITQSWQWSVRVQPRGRAHLLPNPY | 1.5 |
| ITQSWQNSVRVQPRGRAHLLPNPY | 2.38 |
| ITQSWQDSVRVQPRGRAHLLPNPY | 2.42 |
| ITQSWQTSVRVQPRGRAHLLPNPY | 2.04 |
| ITQSWQESVRVQPRGRAHLLPNPY | 2.29 |
| ITQSWQYSVRVQPRGRAHLLPNPY | 1.86 |
| ITQSWQRSVRVQPRGRAHLLPNPY | 2.39 |
| ITQSWQLSVRVQPRGRAHLLPNPY | 1.88 |
| ITQSWQFSVRVQPRGRAHLLPNPY | 2.22 |
| ITQSWQPSVRVQPRGRAHLLPNPY | 2.7 |
| ITQSWQSSVRVQPRGRAHLLPNPY | 2.12 |
| ITQSWQCSVRVQPRGRAHLLPNPY | 1.6 |
| ITQSWQHSVRVQPRGRAHLLPNPY | 2.68 |
| ITQSWQMSVRVQPRGRAHLLPNPY | 2.46 |
| ITQSWQGSVRVQPRGRAHLLPNPY | 2.34 |

| Variant | protein stability index |
| --- | --- |
| ITQSWQVSVRVQQRGRAHLLPNPY | 2.21 |
| ITQSWQVSVRVQGRGRAHLLPNPY | 1.64 |
| ITQSWQVSVRVQDRGRAHLLPNPY | 1.86 |
| ITQSWQVSVRVQNRGRAHLLPNPY | 1.74 |
| ITQSWQVSVRVQKRGRAHLLPNPY | 1.65 |
| ITQSWQVSVRVQTRGRAHLLPNPY | 1.94 |
| ITQSWQVSVRVQRRGRAHLLPNPY | 1.16 |
| ITQSWQVSVRVQHRGRAHLLPNPY | 2.27 |
| ITQSWQVSVRVQMRGRAHLLPNPY | 1.91 |
| ITQSWQVSVRVQIRGRAHLLPNPY | 2.67 |
| ITQSWQVSVRVQSRGRAHLLPNPY | 2.67 |
| ITQSWQVSVRVQLRGRAHLLPNPY | 2.69 |
| ITQSWQVSVPVQPRGRAHLLPNPY | 1.83 |
| ITQSWQVSVAVQPRGRAHLLPNPY | 1.83 |
| ITQSWQVSVWVQPRGRAHLLPNPY | 2.02 |
| ITQSWQVSVHVQPRGRAHLLPNPY | 1.5 |
| ITQSWQVSVYVQPRGRAHLLPNPY | 2.12 |
| ITQSWQVSVMVQPRGRAHLLPNPY | 2.9 |
| ITQSWQVSVSVQPRGRAHLLPNPY | 1.98 |
| ITQSWQVSVTVQPRGRAHLLPNPY | 1.98 |
| ITQSWQVSVNVQPRGRAHLLPNPY | 2.63 |
| ITQSWQVSVLVQPRGRAHLLPNPY | 2.47 |
